Results reported in patent US6972319B1, “Pituitary adenylate cyclase activating peptide (PACAP)receptor 3 (R3) agonists and their pharmacological methods of use” (priority 1999, dated 2005).
No end group written: not given here.

T1: PACAP-R3 (human, UniProt P41587 24-438)
T1 sequence (looked up): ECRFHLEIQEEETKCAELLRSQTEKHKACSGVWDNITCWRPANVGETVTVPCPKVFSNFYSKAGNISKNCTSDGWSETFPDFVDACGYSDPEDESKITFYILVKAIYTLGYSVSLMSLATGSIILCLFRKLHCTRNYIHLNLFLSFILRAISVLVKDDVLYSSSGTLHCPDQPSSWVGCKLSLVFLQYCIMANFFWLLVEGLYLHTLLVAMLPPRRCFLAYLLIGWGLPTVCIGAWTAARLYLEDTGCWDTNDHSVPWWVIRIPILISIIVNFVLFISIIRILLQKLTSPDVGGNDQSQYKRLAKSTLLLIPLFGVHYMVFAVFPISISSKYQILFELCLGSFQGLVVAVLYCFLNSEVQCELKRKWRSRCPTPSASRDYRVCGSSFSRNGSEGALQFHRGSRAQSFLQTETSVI


Biological target: T1, PACAP-R3
Test: cell-based or functional assay
Conditions: not given

Row | Molecule | R3 EC50, nM (cAMP SPA) [nM] | R3 Selectivity [ratio]
1 | HSDAVFTDNYTRLRKQMASKKYLNSIRNRI [rR3P193] | 1.9 | 110
2 | HSDGIFTDSYSRKRKQMAVKKYLAAVL-NH2 [PAC13] | 0.5 | 6
3 | HSDAVFTDNYTRLRKQMASKKYLNSIQNRI [rR3P188] | 2.2 | 70
4 | HSDKIFTDSYSRYRKQMAVKKYLAAVL-NH2 [PAC4] | 7 | 6
5 | HSDGIFTDSYSRYRKQMAVKKYKAAVL-NH2 [PAC23] | 13 | 13
6 | HSDAVFTDNYTRLRKQMARKKYLNSIRNRI [rR3P192] | 0.6 | 60
7 | HSDGIFTDSYSRYRKKMAVKKYLAAVL-NH2 [PAC16] | 0.2 | 1
8 | HSDGIFTDSKSRYRKQMAVKKYLAAVL-NH2 [PAC10] | 27 | 4
9 | HSDGIFTDSYSRYRKQMAVKKYLAKVL-NH2 [PAC25] | 0.04 | 3
10 | HSDAVFTDNYTRLRKQMARKKYLNSIKNRI [rR3P177] | 1.6 | 70
11 | HSDGIFTDSYSRYREQMAVKKYLAAVL-NH2 [PAC15] | 0.2 | 12
12 | HSDAVFTDNYTRLRKQMAAKKYLNSIQNRI [rR3P184] | 0.37 | 30
13 | HSDGIFTDSYSRYRKQMAVKKYLKAVL-NH2 [PAC24] | 0.2 | 1.5
14 | HSDAVFTDNYTRLRKQMAGKKYLNSIPNRI [rR3P180] | 6.7 | > 20
15 | HSDAVFTDNYTRLRKQMAAKKYLNSIRNRI [rR3P189] | 0.04 | 30
16 | HSDAVFTDNYTRLRKQMAKKKYLNSIQNRI [rR3P186] | 1.6 | 44
17 | HSDGIFTDSYSEYRKQMAVKKYLAAVL-NH2 [PAC12] | 3 | 50
18 | HSDAVFTDNYTRLRKQMAKKKYLNSIPNRI [rR3P181] | 5.1 | 50
19 | HSDAVFTDNYTRLRKQMAGKKYLNSIKNRI [rR3P175] | 2.2 | 180
20 | HSDGIFTDKYSRYRKQMAVKKYLAAVL-NH2 [PAC9] | 0.7 | 1
21 | HSDGIFTDSYSRYRKQMAVKEYLAAVL-NH2 [PAC21] | 0.24 | 10
22 | HSDGIFTDSYSRYRKQKAVKKYLAAVL-NH2 [PAC17] | 0.15 | 1.6
23 | HSDAVFTDNYTRLRKQMASKKYLNSIKNRI [rR3P178] | 0.75 | 110
24 | HSDGIFTKSYSRYRKQMAVKKYLAAVL-NH2 [PAC8] | 47 | 1

More lines, now with the values ahead:

Row | R3 EC50, nM (cAMP SPA) [nM] | R3 Selectivity [ratio] | Molecule
25 | 2.2 | 100 | HSDAVFTDNYTRLRKQMAGKKYLNSIRNRI [rR3P190]
26 | 0.3 | 1 | HSDGIFTDSYSRYRKQMAVKKYLAAKL-NH2 [PAC26]
27 | 0.4 | 20 | HSDGIFTDSYSRYRKQMAKKKYLAAVL-NH2 [PAC19]
28 | 1.5 | 150 | HSDAVFTDNYTRLRKQMAAKKYLNSIPNRI [rR3P179]
29 | 140 | 0.1 | HSDGIFTDSYKRYRKQMAVKKYLAAVL-NH2 [PAC11]
30 | 4.5 | 40 | HSDAVFTDNYTRLRKQMAGKKYLNSIQNRI [rR3P185]
31 | 0.2 | 90 | HSDAVFTDNYTRLRKQMAAKKYLNSIKNRI [rR3P174]
32 | 3.2 | 90 | HSDAVFTDNYTRLRKQMARKKYLNSIPNRI [rR3P182]
33 | 5.4 | > 30 | HSDAVFTDNYTRLRKQMASKKYLNSIPNRI [rR3P183]
34 | 2.7 | > 80 | HSDAVFTDNYTRLRKQMAKKKYLNSIRNRI [rR3P191]
35 | 15 | 0.1 | HSDGIFTDSYSRYRKQMAVKKKLAAVL-NH2 [PAC22]
36 | 0.7 | 30 | HSDGIFTDSYSRYRKQMAVEKYLAAVL-NH2 [PAC20]
37 | 1.6 | 70 | HSDGIFTDSYSRYEKQMAVKKYLAAVL-NH2 [PAC14]
38 | 2 | 150 | HSDAVFTDNYTRLRKQMAKKKYLNSIKNRI [rR3P176]
39 | 1.1 | 1.4 | HSDGIFTDSYSRYRKQMAVKKYLAAVK-NH2 [PAC27]
40 | 1.6 | > 80 | HSDAVFTDNYTRLRKQMARKKYLNSIQNRI [rR3P187]

Tested on: not listed separately
Test: Intraperitoneal glucose tolerance test (IPGTT), plasma glucose in rats
Assay type: in vivo, Wistar rats
Conditions: 1 nmole/kg s.c., rats, FIG. 7
Method: Wistar rats are fasted overnight and then anesthetized with pentobarbital. The rats were eye-bled (zero time) and the peptide (in 1% human albumin) was injected into the tail vein. Five minutes later, 1 g/kg of glucose (in saline) was injected intraperitoneally, and the rats were eye-bled after 15, 30 and 60 minutes. Plasma glucose levels were determined using the Technicon Axon autoanalyzer, Bayer Diagnosics division of Bayer Corporation, Tarrytown N.Y., operated using Method No. SM4-2143F90“Glucose”.
Wistar rats were fasted overnight and then anesthetized with Pentobarbital. The rats were eye-bled (zero time) and the peptide (in 1% human albumin) was injected subcutaneously. Five minutes later, 1 g/kg of glucose (in saline) was injected intraperitoneally, and the rats were eye-bled after 30 minutes.
Plasma glucose: Data are expressed as % of vehicle of plasma glucose area under the curve after IPGTT (1 g/kg glucose) after treatment with 1 nmol/kg dose of the peptide. […] The present inventors have shown for the first time that this is because the effects of R2 and R3 on glucose tend to cancel each other out. […] Therefore, R3-selectivity appears to be a desirable attribute for medicaments which are to be employed in achieving blood glucose reduction, for treatment of type 2 diabetes.

Row | Molecule | elevation of plasma glucose 30 minutes after IPGTT
41 | HAEGTFTSDV SSYLEGQAAK EFIAWLVKGR-NH2 (HAEGTFTSDVSSYLEGQAAKEFIAWLVKGR-NH2) [GLP-1, incretin hormone released from the intestinal L-cell, a known insulin secretagogue, reference compound] | enhance glucose disposal
